# Reference: patent US20140178854A1
# Key:
# [1] = molecular target: gp70 env protein of amphotropic MLV (4070A envelope), on purified viral particles (amphotropic murine leukemia virus (4070A envelope)); assay: ELISA on plate-bound MLV, dilution factor 10, Exp072-DTV Plate 1
# [2] = molecular target: gp70 env protein of amphotropic MLV (4070A envelope), on purified viral particles (amphotropic murine leukemia virus (4070A envelope)); assay: ELISA on plate-bound MLV, dilution factor 10, Exp072-DTV Plate 2
# [3] = molecular target: gp70 env protein of amphotropic MLV (4070A envelope), on purified viral particles (amphotropic murine leukemia virus (4070A envelope)); assay: ELISA on plate-bound MLV, dilution factor 10, Exp121-Ana Plate 1
# [4] = molecular target: gp70 env protein of amphotropic MLV (4070A envelope), on purified viral particles (amphotropic murine leukemia virus (4070A envelope)); assay: ELISA on plate-bound MLV, dilution factor 10, Exp122-Ana Plate 1
# [5] = molecular target: gp70 env protein of amphotropic MLV (4070A envelope), on purified viral particles (amphotropic murine leukemia virus (4070A envelope)); assay: ELISA on plate-bound MLV, dilution factor 50, Exp074-DTV Plate 1
# [6] = molecular target: gp70 env protein of amphotropic MLV (4070A envelope), on purified viral particles (amphotropic murine leukemia virus (4070A envelope)); assay: ELISA on plate-bound MLV, dilution factor 50, Exp125-Ana Plate 1
# [7] = molecular target: gp70 env protein of amphotropic MLV (4070A envelope), on purified viral particles (amphotropic murine leukemia virus (4070A envelope)); assay: ELISA on plate-bound MLV, dilution factor 50, Exp125-Ana Plate 2
# [8] = molecular target: gp70 env protein of amphotropic MLV (4070A envelope), on purified viral particles (amphotropic murine leukemia virus (4070A envelope)); assay: ELISA on plate-bound MLV, dilution factor 250, Exp074-DTV Plate 2
# [9] = molecular target: gp70 env protein of amphotropic MLV (4070A envelope), on purified viral particles (amphotropic murine leukemia virus (4070A envelope)); assay: ELISA on plate-bound MLV, dilution factor 1250, Exp073-DTV Plate 1
# [10] = molecular target: gp70 env protein of amphotropic MLV (4070A envelope), on purified viral particles (amphotropic murine leukemia virus (4070A envelope)); assay: ELISA on plate-bound MLV, dilution factor 1250, Exp121-Ana Plate 2
# [11] = molecular target: gp70 env protein of amphotropic MLV (4070A envelope), on purified viral particles (amphotropic murine leukemia virus (4070A envelope)); assay: ELISA on plate-bound MLV, dilution factor 1250, Exp125-Ana Plate 1
# [12] = molecular target: gp70 env protein of amphotropic MLV (4070A envelope), on purified viral particles (amphotropic murine leukemia virus (4070A envelope)); assay: ELISA on plate-bound MLV, dilution factor 1250, Exp125-Ana Plate 2
# [13] = molecular target: gp70 env protein of amphotropic MLV (4070A envelope), on purified viral particles (amphotropic murine leukemia virus (4070A envelope)); assay: ELISA on plate-bound MLV, dilution factor 6250, Exp122-Ana Plate 2
# [14] = molecular target: gp70 env protein of amphotropic MLV (4070A envelope), on purified viral particles (amphotropic murine leukemia virus (4070A envelope)); assay: ELISA on plate-bound MLV, dilution factor 6250, Exp125-Ana Plate 2
# [15] = molecular target: gp70 env protein of amphotropic MLV (4070A envelope), on purified viral particles (amphotropic murine leukemia virus (4070A envelope)); assay: ELISA on plate-bound MLV, dilution factor 31250, Exp073-DTV Plate 1
# [16] = molecular target: gp70 env protein of amphotropic MLV (4070A envelope), on purified viral particles (amphotropic murine leukemia virus (4070A envelope)); assay: ELISA on plate-bound MLV, dilution factor 31250, Exp121-Ana Plate 2
# [17] = molecular target: gp70 env protein of amphotropic MLV (4070A envelope), on purified viral particles (amphotropic murine leukemia virus (4070A envelope)); assay: ELISA on plate-bound MLV, dilution factor 156250, Exp073-DTV Plate 2
# [18] = molecular target: gp70 env protein of amphotropic MLV (4070A envelope), on purified viral particles (amphotropic murine leukemia virus (4070A envelope)); assay: ELISA on plate-bound MLV, dilution factor 156250, Exp074-DTV Plate 2
# [19] = molecular target: gp70 env protein of amphotropic MLV (4070A envelope), on purified viral particles (amphotropic murine leukemia virus (4070A envelope)); assay: ELISA on plate-bound MLV, dilution factor 156250, Exp122-Ana Plate 1
# [20] = molecular target: gp70 env protein of amphotropic MLV (4070A envelope), on purified viral particles (amphotropic murine leukemia virus (4070A envelope)); assay: ELISA on plate-bound MLV, dilution factor 156250, Exp125-Ana Plate 2
# [21] = molecular target: gp70 env protein of amphotropic MLV (4070A envelope), on purified viral particles (amphotropic murine leukemia virus (4070A envelope)); assay: ELISA on plate-bound MLV, dilution factor 781250, Exp072-DTV Plate 1
# [22] = molecular target: gp70 env protein of amphotropic MLV (4070A envelope), on purified viral particles (amphotropic murine leukemia virus (4070A envelope)); assay: ELISA on plate-bound MLV, dilution factor 781250, Exp073-DTV Plate 2
# [23] = molecular target: gp70 env protein of amphotropic MLV (4070A envelope), on purified viral particles (amphotropic murine leukemia virus (4070A envelope)); assay: ELISA on plate-bound MLV, dilution factor 781250, Exp121-Ana Plate 2
# [24] = molecular target: gp70 env protein of amphotropic MLV (4070A envelope), on purified viral particles (amphotropic murine leukemia virus (4070A envelope)); assay: ELISA on plate-bound MLV, dilution factor 781250, Exp122-Ana Plate 1
# [25] = molecular target: gp70 env protein of amphotropic MLV (4070A envelope), on purified viral particles (amphotropic murine leukemia virus (4070A envelope)); assay: ELISA on plate-bound MLV, dilution factor 781250, Exp125-Ana Plate 2
# [26] = molecular target: gp70 env protein of amphotropic MLV (4070A envelope), on purified viral particles (amphotropic murine leukemia virus (4070A envelope)); assay: ELISA on plate-bound MLV, dilution factor 6250, inter-assay mean of six experiments
# Sequence of gp70 env protein of amphotropic MLV (4070A envelope), on purified viral particles (amphotropic murine leukemia virus (4070A envelope)) (P21995 whole entry): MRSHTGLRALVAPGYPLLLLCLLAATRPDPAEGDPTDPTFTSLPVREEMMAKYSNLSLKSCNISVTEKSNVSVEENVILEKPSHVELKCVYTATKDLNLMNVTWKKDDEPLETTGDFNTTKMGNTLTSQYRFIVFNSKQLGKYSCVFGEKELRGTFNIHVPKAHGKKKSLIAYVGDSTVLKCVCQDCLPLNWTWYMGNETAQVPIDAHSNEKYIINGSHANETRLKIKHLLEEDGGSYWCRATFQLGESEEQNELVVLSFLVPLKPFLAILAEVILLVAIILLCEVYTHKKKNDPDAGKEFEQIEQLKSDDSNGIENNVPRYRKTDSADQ
substance,measurement,setting,value
"83A25 monoclonal antibody (rat IgG2a, anti-gp70)",Mean OD,[1],1.98 OD
same,Mean OD,[2],2.04 OD
same,Mean OD,[3],2.65 OD
same,Mean OD,[4],2.17 OD
same,Mean OD,[5],2.01 OD
same,Mean OD,[6],1.99 OD
same,Mean OD,[7],1.96 OD
same,Mean OD,[8],1.89 OD
same,Mean OD,[9],1.78 OD
same,Mean OD,[10],1.84 OD
same,Mean OD,[11],1.44 OD
same,Mean OD,[12],1.44 OD
same,Mean OD,[13],0.643 OD
same,Mean OD,[14],0.635 OD
same,Mean OD,[15],0.282 OD
same,Mean OD,[16],0.276 OD
same,Mean OD,[17],0.139 OD
same,Mean OD,[18],0.131 OD
same,Mean OD,[19],0.18 OD
same,Mean OD,[20],0.124 OD
same,Mean OD,[21],0.087 OD
same,Mean OD,[22],0.11 OD
same,Mean OD,[23],0.131 OD
same,Mean OD,[24],0.162 OD
same,Mean OD,[25],0.105 OD
same,Mean OD (inter-assay mean),[26],0.693 OD
